Test results published in publication PMC9347012, “Regulation of tomato fruit elongation by transcription factor BZR1.7 through promotion of SUN gene expression”.

B1: E-box-wt probe (SUN promoter, 42 bp) (dsDNA)
DNA 1: TGTCCATCAAGACCGAAACAAATGAGAAAAATCACCTAGTGT
DNA 2: ACACTAGGTGATTTTTCTCATTTGTTTCGGTCTTGATGGACA
B2: E-box-mt probe (CAAATG to TCGCGA) (dsDNA)
DNA 1: TGTCCATCAAGACCGAAATCGCGAAGAAAAATCACCTAGTGT
DNA 2: ACACTAGGTGATTTTTCTTCGCGATTTCGGTCTTGATGGACA

Biological target: BZR1.7 (His-6-MBP-BZR1.7) (Solanum lycopersicum, UniProt A0A3Q7IIT4 1-180)
Sequence (A0A3Q7IIT4 entry or part of it): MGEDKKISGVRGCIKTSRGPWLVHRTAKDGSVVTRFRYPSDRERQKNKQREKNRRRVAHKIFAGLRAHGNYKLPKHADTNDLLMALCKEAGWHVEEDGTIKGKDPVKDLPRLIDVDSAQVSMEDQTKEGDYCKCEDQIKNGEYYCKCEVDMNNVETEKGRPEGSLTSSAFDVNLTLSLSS
Assay: EMSA; EMSA: 20 uL binding reaction buffer (composition not given), 40 min at 4 °C in the dark; 6% native PAGE, 0.5x TBE, 4 °C; pH and salt not given
Details: protein: recombinant; tags: His6-MBP, N-terminal; label: 5'-FAM (on one strand; partner unlabeled); blunt

Binder	binding result
B1	binds
B2	no binding
